Measured values reported in patent US20210213134.
Positions count from the first letter of the chain named.

B1: Azido-C35STRX (C35STRX with azido-PEG linkers on Lys residues, reduced) (protein)
chain: MVKQIESKTAFQEALDAAGDKLVVVDFSATWCGPSKMIKPFFHSLSEKYSNVIFLEVDVDDCQDVASECEVKCMPTFQFFKKGQKVGEFSGANKEKLEATINELV
B2: native human thioredoxin-1 (TRX) (protein)
chain: B1 chain with S35C

Target: insulin (fully disulfide-bonded heterodimeric insulin)

| Protein | activity in the insulin assay as compared to unreacted reduced C35STRX | insulin disulfide bond reduction activity |
| --- | --- | --- |
| B1 | the conjugated material retained about 33% of its activity in the insulin assay as compared to unreacted reduced C35STRX |  |
| B2 |  | GSH is capable of restoring insulin disulfide bond reduction activity to oxidized TRX (FIG. 1) |
